From patent US20210380680A1 (ZLLP, published 2021)
Residue numbers refer to the chain shown, from its start. Numbers in names are those of the source.

B1: 364D1A7-H2L3 (antibody, V domains shown)
VH: EVQLVESGGGLVQPGGSLRLSCAASGFTFSSFGMHWVRQAPGKGLEWVAYISSGSGSIYYADTVKGRFTISRDNPKNSLYLQMNSLRAEDTAVYYCATSYYYGNALEYWGQGTTVTVSS
VL: DVVLTQSPDSLAVSLGERATINCKSSQSLFNVGNQKNYLTWYQQKPGQTPKLLIYWASTRKSGVPDRFSGSGSGTDFTLTISSLQAEDVAVYYCQNVYSYPLTFGGGTKVEIK
notes: humanized IgG; constant regions not specified
B2: 364D1A7-H2L4 (antibody, V domains shown)
VH: B1 VH
VL: B1 VL with N22S, K51T
notes: as for B1
B3: 364D1A7-H4L1 (antibody, V domains shown)
VH: B1 VH with E1D, I70L, S78T
VL: B1 VL with V2I, L4M, T49P
notes: humanized IgG; constant regions not specified; also called 364D1A7-H41L
B4: 364D1A7-H2L2 (antibody, V domains shown)
VH: B1 VH
VL: B1 VL with V2I
notes: as for B1
B5: 364D1A7-H4L4 (antibody, V domains shown)
VH: B1 VH with E1D, I70L, S78T
VL: B1 VL with N22S, K51T
notes: as for B1
B6: 364D1A7-H3L5 (antibody, V domains shown)
VH: B1 VH with I70L
VL: B1 VL with N22S, K51T, S69T, G106A
notes: as for B1
B7: 364D1A7-H3L4 (antibody, V domains shown)
VH: B1 VH with I70L
VL: B1 VL with N22S, K51T
notes: as for B1
B8: 364D1A7-H4L2 (antibody, V domains shown)
VH: B1 VH with E1D, I70L, S78T
VL: B1 VL with V2I
notes: as for B1
B9: 364D1A7-H3L3 (antibody, V domains shown)
VH: B1 VH with I70L
VL: B1 VL
notes: as for B1
B10: 364D1A7-H1L5 (antibody, V domains shown)
VH: B1 VH with A49S, P75A
VL: B1 VL with N22S, K51T, S69T, G106A
notes: as for B1
B11: 364D1A7-H1L2 (antibody, V domains shown)
VH: B1 VH with A49S, P75A
VL: B1 VL with V2I
notes: as for B1
B12: 364D1A7-H2L5 (antibody, V domains shown)
VH: B1 VH
VL: B1 VL with N22S, K51T, S69T, G106A
notes: as for B1
B13: 364D1A7-H1L4 (antibody, V domains shown)
VH: B1 VH with A49S, P75A
VL: B1 VL with N22S, K51T
notes: as for B1
B14: 364D1A7-H3L2 (antibody, V domains shown)
VH: B1 VH with I70L
VL: B1 VL with V2I
notes: as for B1
B15: 364D1A7-H4L3 (antibody, V domains shown)
VH: B1 VH with E1D, I70L, S78T
VL: B1 VL
notes: as for B1
B16: 364D1A7-H4L5 (antibody, V domains shown)
VH: B1 VH with E1D, I70L, S78T
VL: B1 VL with N22S, K51T, S69T, G106A
notes: as for B1
B17: 364D1A7-H2L1 (antibody, V domains shown)
VH: B1 VH
VL: B1 VL with V2I, L4M, T49P
notes: as for B1
B18: 364D1A7-H1L3 (antibody, V domains shown)
VH: B1 VH with A49S, P75A
VL: B1 VL
notes: as for B1
B19: 413H9F8-H3L4 (antibody, V domains shown)
VH: EVQLVESGGGLVQPGGSLRLSCAASGFTFSSFGMHWVRQAPGKGLEWVAYISSGSSPIYYVDKLKGRFTVSRDNAKNSLYLQMNSLRAEDTAVYYCARAGYAVRNALDYWGQGTLVTVSS
VL: DIVMTQSPDSLAVSLGERATISCKSSQSLLNVGNQKNYLAWYQQKPGQPPKLLIYGASTRESGVPDRFIGSGSGTDFTLTISSLQAEDVAVYFCQNDLFYPLTFGAGTKVEIK
notes: as for B1
B20: 413H9F8-H1L2 (antibody, V domains shown)
VH: B19 VH with A49S, V70I
VL: B19 VL with S22N, I69S, A106G
notes: as for B1
B21: 413H9F8-H2L4 (antibody, V domains shown)
VH: B19 VH with V70I
VL: B19 VL
notes: as for B1
B22: 413H9F8-H2L3 (antibody, V domains shown)
VH: B19 VH with V70I
VL: B19 VL with S22N, A106G
notes: as for B1
B23: 413H9F8-H3L1 (antibody, V domains shown)
VH: B19 VH
VL: B19 VL with S22N, I69S, F93Y, A106G
notes: as for B1
B24: 413H9F8-H1L4 (antibody, V domains shown)
VH: B19 VH with A49S, V70I
VL: B19 VL
notes: as for B1
B25: 413H9F8-H4L2 (antibody, V domains shown)
VH: B19 VH with N84T
VL: B19 VL with S22N, I69S, A106G
notes: as for B1
B26: 413H9F8-H3L3 (antibody, V domains shown)
VH: B19 VH
VL: B19 VL with S22N, A106G
notes: as for B1
B27: 413H9F8-H4L1 (antibody, V domains shown)
VH: B19 VH with N84T
VL: B19 VL with S22N, I69S, F93Y, A106G
notes: as for B1
B28: 413H9F8-H4L4 (antibody, V domains shown)
VH: B19 VH with N84T
VL: B19 VL
notes: as for B1
B29: 413H9F8-H3L2 (antibody, V domains shown)
VH: B19 VH
VL: B19 VL with S22N, I69S, A106G
notes: as for B1

biological target: T1, human Claudin 18.2 (CLDN18.2) (human, UniProt P56856-2 1-261); assay: FACS on CHO-CLDN18.2 cells
T1 construct: whole, on cells; recombinantly expressed on CHO, HEK293, NCI-N87, NUGC4 or PANC-1 cells; also called CHO-CLDN18.2

| EC50 [nM] | Binder |
| --- | --- |
| 4.4 | B1 |
| 3.94 | B2 |
| 4.12 | B3 |
| 6.14 | B4 |
| 3.85 | B5 |
| 4.53 | B6 |
| 4.78 | B7 |
| 4.51 | B8 |
| 3.54 | B9 |
| 3.96 | B10 |
| 6.9 | B11 |
| 3.35 | B12 |
| 4.03 | B13 |
| 4.05 | B14 |
| 4.56 | B15 |
| 4.38 | B16 |
| 3.47 | B17 |
| 4.1 | B18 |

biological target: T1, human Claudin 18.2 (CLDN18.2); assay: cell-based or functional assay

| ADCC EC50, NUGC4-CLDN18.2, PBMC [nM] | Binder | % specific cytotoxicity @ 6.67 nM, NUGC4-CLDN18.2, PBMC [%] |
| --- | --- | --- |
| 7.58 | B3 | 26.4 |
| 9.69 | B4 | 26.6 |
| 8.17 | B10 | 27.5 |
| 6.4 | B16 | 26.4 |
| 6.09 | B19 | 28.7 |

biological target: T1, human Claudin 18.2 (CLDN18.2); assay: cell-based or functional assay; remark: another data set of the same source

| % ADCC @ 6.67 nM, NCI-N87-CLDN18.2, FcR-TANK [%] | ADCC EC50, NCI-N87-CLDN18.2, FcR-TANK [nM] | Binder |
| --- | --- | --- |
| 9.3 | 0.31 | B3 |
| 9.4 | 0.22 | B4 |
| 9.1 | 0.26 | B10 |
| 12 | 0.34 | B16 |
| 16 | 0.35 | B19 |

biological target: T1, human Claudin 18.2 (CLDN18.2); assay: FACS on CHO-CLDN18.2 cells; remark: another data set of the same source

| EC50 [nM] | Binder |
| --- | --- |
| 2.18 | B20 |
| 2.8 | B21 |
| 2.74 | B19 |
| 2.49 | B22 |
| 2.42 | B23 |
| 3.32 | B24 |
| 2.45 | B25 |
| 2.24 | B26 |
| 2.69 | B27 |
| 2.34 | B28 |
| 2.14 | B29 |
